Data reported in patent US6429304B1, “Nucleic acids encoding a katanin p60 subunit” (The Regents of the University of California, priority 1998, dated 2002).

How the values were obtained:
[1] = ATPase assay (modified malachite green method); assay type: biochemical; conditions: for microtubule concentration at peak stimulation of ATP turnover: non-hyperbolic, decreases at higher microtubule concentrations
Method: ATPase activity was measured by a modified malachite green method (Kodama et al. (1986) J. Biochem. 99: 1465-1472). ATPase reactions of 50-100 μl were carried out in a buffer previously used for measuring the ATPase activity of native katanin [20 mM K-HEPES pH 8.0, 25 mM potassium glutamate 2 mM MgCl2, 10% glycerol (v/v), 0.02% Triton X-100 (w/v), 1 mg/ml BSA] (McNally and Vale (1993) Cell, 75: 419-429), except that soybean trypsin inhibitor (SBTI) was replaced by BSA as a carrier protein because SBTI increased background phosphate contamination. An ATP regenerating system, consisting of 0.5-1.0 mM phosphoenol pyruvate and 2 units of pyruvate kinase, was included to minimize the inhibition by ADP observed previously for native katanin (McNally and Vale (1993) Cell, 75: 419-429). Microtubules were prepared from bovine brain tubulin (Hyman et al. (1990) Meth. Enzymol. 196: 303-319; and Williams and Lee (1982) Meth Enzymol. 85B: 376-385). After assembly, microtubules were sedimented (230,000×g; 10 min), resuspended in ATPase buffer lacking BSA, and the polymers were resuspended by repeated passage through a 27 gauge needle. Microtubule concentration was determined by measuring the absorbance at 275 nm in 6 M guanidine HCl by using a molecular mass of 110 kDa and an extinction coefficient of 1.03 ml mg^−1 cm^−1 (Hackney (1988) Proc. Natl. Acad Sci. USA, 85: 6314-6318). ATPase reactions were carried out at room temperature, and were initiated by addition of katanin.

[2] = system: DAPI-labeled microtubules; test: DAPI fluorescence microtubule disassembly (severing) assay; assay type: biochemical, bovine; conditions: 0.2 μM protein, 2 μM microtubules
Excerpt: To better compare the microtubule severing activities of p60 and p60/p80, we developed a quantitative microtubule disassembly assay based upon a previous finding that DAPI fluorescence intensity is higher when this dye is bound to polymerized versus free tubulin (Heusele et al. (1987) Eur. J Biochem. 165: 613-620). […] This slower rate of microtubule disassembly is consistent with the previously described 2-fold decrease in ATPase activity of p60 compared with p60/p80.
ATPase activity was measured by a modified malachite green method (Kodama et al. (1986) J. Biochem. 99: 1465-1472). […] Microtubule concentration was determined by measuring the absorbance at 275 nm in 6 M guanidine HCl by using a molecular mass of 110 kDa and an extinction coefficient of 1.03 ml mg^−1 cm^−1 (Hackney (1988) Proc. Natl. Acad Sci. USA, 85: 6314-6318). […]
DAPI severing assays were performed using conditions where the change in fluorescence intensity was linear with the amount of tubulin polymer added (Heusele et al. (1987) Eur. J Biochem. 165: 613-620). […] The reaction volume was 80 μL, and fluorescence intensity was measured by exciting at 370 nm. and measuring the emission at 450 mn using a model 8100 fluorimeter (SLM Instruments) in photon counting mode.

[3] = system: Taxol-stabilized, rhodamine-labeled microtubules; test: Microscope-based microtubule severing assay; assay type: biochemical; conditions: for time until microtubules were completely disassembled: 0.1 μM protein, 1 mM ATP; for microtubule severing (in words): p60, p60/p80 0.1 μM, p80 0.5 μM (5-fold higher)
Method: FIGS. 5A, 5B, and 5C illustrate the activities of recombinant katanin subunits. […] Taxol-stabilized, rhodamine-labeled microtubules were adsorbed onto the surface of a microscope perfusion chamber, and then recombinant katanin subunits were introduced. The time elapsed after perfusing p60/p80 (0.1 μM), p60 (0.1 μM), or p80 (0.5 μM) is shown. The recombinant co-expressed p60/p80 and p60, but not p80, can sever and disassemble microtubules. Scale bar, 10 μm.
Microscope-based severing assays were performed using previously published procedures (McNally and Vale (1993) Cell, 75: 419-429), except that microtubules were immobilized by first perfusing flow cells with a bacterially expressed kinesin mutant that binds strongly to microtubules but is unable to hydrolyze ATP (K560, G234A mutant; R. Vale and E. Taylor, unpublished results). Assays were performed in 20 mM Hepes (pH 7.5), 2 mM MgCl2, 1 mM ATP with an oxygen scavenger system consisting of glucose oxidase (220 μg/ml), catalase (36 μg/ml), glucose (22.5 mM), and 2-mercaptoethanol (71.5 mM). Images were captured using a cooled, slow-scan CCD (Photometerics) and processed using Adobe Photoshop.

Molecule	ATPase activity (in words) ([1]; baculovirus-expressed subunit alone)	maximal basal and microtubule-stimulated ATPase rates relative to p60/p80 heterodimer ([1]; compared with p60/p80) [fold lower]	microtubule concentration at peak stimulation of ATP turnover [1] [μM tubulin]	rate of microtubule disassembly compared with p60/p80 [2]	time until microtubules were completely disassembled [3] [min]	microtubule severing (in words) [3]	ATP turnover rate ([1]; basal, without microtubules) [ATP/sec/heterodimer]	stimulation of ATPase activity by microtubules ([1]; maximal stimulation) [fold]	basal ATPase activity ([1]; basal) [ATP/katanin/sec]	maximal microtubule-stimulated ATPase rate ([1]; microtubule-stimulated) [ATP/katanin/sec]
p60: S. purpuratus katanin p60 subunit, 516 a.a. AAA ATPase (SEQ ID NO:1), baculovirus-expressed with N-terminal His(6) tag (protein, listed as Strongylocentrotus purpuratus, N-terminal His6 tag; katanin p60 subunit) MSVDEICENTKMGREYALLGNYETSLVYYQGVLQQIQKLLTSVHEPQRKHQWQTIRQELSQEYEHVKNITKTLNGFKSEPAAPEPAPNHRAAPFSHHQHAAKPAAAEPARDPDVWPPPTPVDHRPSPPYQRAARKDPPRRSEPSKPANRAPGNDRGGRGPSDRRGDARSGGGGRGGARGSDKDKNRGGKSDKDKKAPSGEEGDEKKFDPAGYDKDLVENLERDIVQRNPNVHWADIAGLTEAKRLLEEAVVLPLWMPDYFKGIRRPWKGVLMVGPPGTGKTMLAKAVATECGTTFFNVSSASLTSKYHGESEKLVRLLFEMARFYAPSTIFIDEIDSICSKRGTGSEHEASRRVKSELLIQMDGVSGPSAGEESSKMVMVLAATNFPWDIDEALRRRLEKRIYIPLPEIDGREQLLRINLKEVPLADDIDLKSIAEKMDGYSGADITNVCRDASMMAMRRRIQGLRPEEIRHIPKEELNQPSTPADFLLALQKVSKSVGKEDLVKYMAWMEEFGSV	displayed a microtubule-stimulated ATPase activity	2	~2	half as active as p60/p80	5	severed microtubules	–	–	–	–
p60/p80: co-expressed recombinant katanin p60/p80 heterodimer complex from baculovirus-infected insect cells (protein) chain 1: HHHHHHMSVDEICENTKMGREYALLGNYETSLVYYQGVLQQIQKLLTSVHEPQRKHQWQTIRQELSQEYEHVKNITKTLNGFKSEPAAPEPAPNHRAAPFSHHQHAAKPAAAEPARDPDVWPPPTPVDHRPSPPYQRAARKDPPRRSEPSKPANRAPGNDRGGRGPSDRRGDARSGGGGRGGARGSDKDKNRGGKSDKDKKAPSGEEGDEKKFDPAGYDKDLVENLERDIVQRNPNVHWADIAGLTEAKRLLEEAVVLPLWMPDYFKGIRRPWKGVLMVGPPGTGKTMLAKAVATECGTTFFNVSSASLTSKYHGESEKLVRLLFEMARFYAPSTIFIDEIDSICSKRGTGSEHEASRRVKSELLIQMDGVSGPSAGEESSKMVMVLAATNFPWDIDEALRRRLEKRIYIPLPEIDGREQLLRINLKEVPLADDIDLKSIAEKMDGYSGADITNVCRDASMMAMRRRIQGLRPEEIRHIPKEELNQPSTPADFLLALQKVSKSVGKEDLVKYMAWMEEFGSV chain 2: HHHHHHMATKRAWKLQELVAHSSNVNCLALGPMSGRVMVTGGEDKKVNLWAVGKQNCIISLSGHTSPVDSVKFNSSEELVVAGSQSGTMKIYDLEPAKIVRTLTGHRNSIRCMDFHPFGEFVASGSTDTNVKLWDVRRKGCIYTYKGHSDQVNMIKFSPDGKWLVTASEDTTIKLWDLTMGKLFQEFKNHTGGVTGIEFHPNEFLLASGSSDRTVQFWDLETFQLVSSTSPGASAVRSISFHPDGSYLFCSSQDMLHAFGWEPIRCFDTFSVGWGKVADTVIASTQLIGASFNATNVSVYVADLSRMSTTGIAQEPQSQPSKTPSGGAEEVPSKPLTASGRKNFVRERPHTTSSKQRQPDVKSEPERQSPTQDEGVKDDDATDIKDPDSYAKIFSPKTRVDHSPERNAQPFPAPLDVPGAQEPEPFKHPPKPAAAAAVAPVSRAPAPSASDWQPAQANPAPNRVPAATKPVPAQEVAPSRKPDPISTIIPSDRNKPANLDMDAFLPPAHAQQAPRVNAPASRKQSDSERIEGLRKGHDSMCQVLSSRHRNLDVVRAIWTAGDAKTSVESVVNMKDQAILVDILNIMLLKKSLWNLDMCVVVLPRLKELLSSKYENYVHTSCACLKLILKNFTSLFNQNIKCPPSGIDITREERYNKCSKCYSYLIATRGYVEEKQHVSGKLGSSFRELHLLLDQLE	–	–	~2	–	5	severed microtubules	0.3	~10	–	–
Katanin: heterodimer of 60 kDa and 80 kDa subunits, microtubule-severing ATPase from sea urchin eggs (protein) chain 1: HHHHHHMSVDEICENTKMGREYALLGNYETSLVYYQGVLQQIQKLLTSVHEPQRKHQWQTIRQELSQEYEHVKNITKTLNGFKSEPAAPEPAPNHRAAPFSHHQHAAKPAAAEPARDPDVWPPPTPVDHRPSPPYQRAARKDPPRRSEPSKPANRAPGNDRGGRGPSDRRGDARSGGGGRGGARGSDKDKNRGGKSDKDKKAPSGEEGDEKKFDPAGYDKDLVENLERDIVQRNPNVHWADIAGLTEAKRLLEEAVVLPLWMPDYFKGIRRPWKGVLMVGPPGTGKTMLAKAVATECGTTFFNVSSASLTSKYHGESEKLVRLLFEMARFYAPSTIFIDEIDSICSKRGTGSEHEASRRVKSELLIQMDGVSGPSAGEESSKMVMVLAATNFPWDIDEALRRRLEKRIYIPLPEIDGREQLLRINLKEVPLADDIDLKSIAEKMDGYSGADITNVCRDASMMAMRRRIQGLRPEEIRHIPKEELNQPSTPADFLLALQKVSKSVGKEDLVKYMAWMEEFGSV chain 2: HHHHHHMATKRAWKLQELVAHSSNVNCLALGPMSGRVMVTGGEDKKVNLWAVGKQNCIISLSGHTSPVDSVKFNSSEELVVAGSQSGTMKIYDLEPAKIVRTLTGHRNSIRCMDFHPFGEFVASGSTDTNVKLWDVRRKGCIYTYKGHSDQVNMIKFSPDGKWLVTASEDTTIKLWDLTMGKLFQEFKNHTGGVTGIEFHPNEFLLASGSSDRTVQFWDLETFQLVSSTSPGASAVRSISFHPDGSYLFCSSQDMLHAFGWEPIRCFDTFSVGWGKVADTVIASTQLIGASFNATNVSVYVADLSRMSTTGIAQEPQSQPSKTPSGGAEEVPSKPLTASGRKNFVRERPHTTSSKQRQPDVKSEPERQSPTQDEGVKDDDATDIKDPDSYAKIFSPKTRVDHSPERNAQPFPAPLDVPGAQEPEPFKHPPKPAAAAAVAPVSRAPAPSASDWQPAQANPAPNRVPAATKPVPAQEVAPSRKPDPISTIIPSDRNKPANLDMDAFLPPAHAQQAPRVNAPASRKQSDSERIEGLRKGHDSMCQVLSSRHRNLDVVRAIWTAGDAKTSVESVVNMKDQAILVDILNIMLLKKSLWNLDMCVVVLPRLKELLSSKYENYVHTSCACLKLILKNFTSLFNQNIKCPPSGIDITREERYNKCSKCYSYLIATRGYVEEKQHVSGKLGSSFRELHLLLDQLE	–	–	–	–	–	–	–	–	0.3	3
